{
  "source": "paper PMC10315065",
  "about": "(Journal of Innate Immunity, 2023)",
  "target": "human glyceraldehyde-3-phosphate dehydrogenase (GAPDH) (human, UniProt P04406 1-335, fluorescent dye NT-647 (Monolith NT Protein Labeling Kit RED-NHS))",
  "sequence (P04406 whole entry)": "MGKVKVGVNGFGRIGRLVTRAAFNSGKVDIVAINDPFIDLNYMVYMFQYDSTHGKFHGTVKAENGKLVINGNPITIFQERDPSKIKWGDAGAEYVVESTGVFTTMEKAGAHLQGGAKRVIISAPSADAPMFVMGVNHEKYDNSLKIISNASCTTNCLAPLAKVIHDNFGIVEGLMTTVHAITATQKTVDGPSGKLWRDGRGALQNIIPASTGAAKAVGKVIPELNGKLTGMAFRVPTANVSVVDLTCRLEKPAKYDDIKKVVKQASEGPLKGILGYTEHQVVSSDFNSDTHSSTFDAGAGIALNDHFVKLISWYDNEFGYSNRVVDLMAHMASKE",
  "assay": "MST",
  "data": [
    {"binder": "GLLRKGGEKIGEKLKKIGQKIKNFFQKLVPQPEQ", "note": "[Mouse cathelicidin-related antimicrobial peptide]", "values": [
      {"measurement": "Kd", "value": 472, "unit": "nM"}
    ]}
  ]
}
